Measured values: article PMC10226596, “The ethylene-responsive transcription factor PpERF9 represses PpRAP2.4 and PpMYB114 via histone deacetylation to inhibit anthocyanin biosynthesis in pear”

What was measured:
PpRAP2.4 [1] = target: T1, PpRAP2.4 (Pyrus (pear, 'Hongzaosu'?), UniProt A0A5N5HQM7 1-356); test: EMSA; 3 ug protein; cold competitor 10-, 50-, 200-fold; LightShift Chemiluminescent EMSA Kit (Thermo Scientific); buffer, salt, pH and temperature not stated; conditions: protein: recombinant; tags: His (pET32a); label: 3' biotin (hot probe); blunt
PpRAP2.4 [2] = target: T1, PpRAP2.4; test: EMSA; cold competitor 50-, 100-, 200-fold; LightShift Chemiluminescent EMSA Kit (Thermo Scientific); buffer, salt, pH and temperature not stated; conditions: protein: recombinant; tags: His (pET32a); label: 3' biotin (hot probe); blunt

T1 sequence (A0A5N5HQM7 entry or part of it): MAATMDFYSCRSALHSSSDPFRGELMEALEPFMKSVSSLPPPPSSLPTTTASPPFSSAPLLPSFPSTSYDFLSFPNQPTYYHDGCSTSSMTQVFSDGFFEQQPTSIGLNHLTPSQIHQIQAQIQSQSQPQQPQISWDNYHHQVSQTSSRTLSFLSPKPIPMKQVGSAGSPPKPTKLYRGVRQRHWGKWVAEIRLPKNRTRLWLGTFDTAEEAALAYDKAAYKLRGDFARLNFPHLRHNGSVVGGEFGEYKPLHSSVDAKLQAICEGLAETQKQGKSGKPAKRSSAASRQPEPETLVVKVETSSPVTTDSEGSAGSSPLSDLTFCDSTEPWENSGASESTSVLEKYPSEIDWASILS

Binder	binding result (PpRAP2.4 [1])	binding result (PpRAP2.4 [2])
ProMYB114-probe (dsDNA) DNA 1: GCTTGCCGTCTTTGTCGTCTCCGGCGCCGCCATCTACATCTGCTTCCAGGTTCAAC DNA 2: GTTGAACCTGGAAGCAGATGTAGATGGCGGCGCCGGAGACGACAAAGACGGCAAGC	binds	
ProACS1-probe (dsDNA) DNA 1: GAAAAATAGAGGAGAAAAATGGCCGACAAAATTAGTTGTGGCTACTAGAGTCAAGAAG DNA 2: CTTCTTGACTCTAGTAGCCACAACTAATTTTGTCGGCCATTTTTCTCCTCTATTTTTC		binds
